# Results published in the RNAGym collection of RNA variant scans (doi:10.1093/molbev/msab373).
# B1: Azoarcus group I ribozyme (parent)
# chain: GUGCCUUGCGCCGGGAAACCACGCAAGGGAUGGUGUCAAAUUCGGCGAAACCUAAGCGCCCGCCCGGGCGUAUGGCAACGCCGAGCCAAGCUUCGGCGCCUGCGCCGAUGAAGGUGUAGAGACUAGACGGCACCCACCUAAGGCAAACGCUAUGGUGAAGGCAUAGUCCAGGGAGUGGCGAAAGUCACACAAACCGG
# Variants of: B1
# Experiment: reverse-splicing fitness (ratio to wild type); higher = more active; in vitro selection; Mg2+ level not given
# Method in brief: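 An in vitro group I ribozyme library with randomized positions was T7-transcribed and gel-purified. In triplicate, 10 pmol RNA in EPPS pH 7.5 was reacted with 50 pmoles of a 30-nt RNA substrate for 1 h at 37 °C across several added MgCl2 levels (1–48 mM), then stopped with EDTA. Products were reverse transcribed from a substrate-complementary primer, PCR-amplified and sequenced (HiSeq 4000). Fitness is a variant's read proportion after selection over that before, normalised to wild type.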
row,Variant,reverse-splicing fitness
1,C82G A111C A120G C150A C169U U176G,0.00512
2,C82G A111C A120G A145G C169G U176A,0.0188
3,C82G A111C A120G A145G C169G U176G,0.00514
4,C82G A111C A120G A145G C169G U176C,0.0288
5,C82G A111C A120G A145G C150U C169G,0.0134
6,C82G A111C A120G A145G C150U C169A,0.0112
7,C82G A111C A120G A145G C150U C169U,0.011
8,C82G A111C A120G A145G C150G C169U,0.00859
9,C82G A111C A120G A145G C150G C169G,0.00765
10,C82G A111C A120G A145G C150G C169A,0.009
11,C82G A111C A120G C150G U176A,0.00843
12,C82G A111C A120G C150G U176C,0.0153
13,C82G A111C A120G C150G U176G,0.00284
14,C82G A111C A120G A145U C150U C169U U176G,0.00531
15,C82G A111C A120G A145U C150U C169U U176C,0.0139
16,C82G A111C A120G A145U C150U C169U U176A,0.0143
17,C82G A111C A120G A145C C150U C169U U176A,0.0147
18,C82G A111C A120G A145C C150U C169U U176G,0.0048
19,C82G A111C A120G A145C C150U C169U U176C,0.0119
20,C82G A111C A120G A145G C150A C169A U176C,0.0198
21,C82G A111C A120G A145G C150A C169A U176G,0.00723

row,Variant,reverse-splicing fitness
1,C82G A111C A120G A145G C150A C169A U176A,0.0181
2,C82G A111C A120U A145C C150A C169U,0.00329
3,C82G A111C A120U A145C C150A C169A,0.00203
4,C82G A111C A120U A145C C150A C169G,0.00326
5,C82G A111C A120G A145C C169A U176C,0.00939
6,C82G A111C A120G A145C C169A U176G,0.00477
7,C82G A111C A120G A145C C169A U176A,0.0138
8,C82G A111C A120C C150U,0.0277
9,C82G A111C A120C C150A,0.0114
10,C82G A111C A120C C150G,0.00951
11,C82G A111C A120G A145U C169A U176A,0.0115
12,C82G A111C A120G A145U C169A U176G,0.00439
13,C82G A111C A120G A145U C169A U176C,0.00997
14,C82G A111C A120G A145G C150G C169U U176G,0.00731
15,C82G A111C A120G A145G C150G C169U U176C,0.0127
16,C82G A111C A120G A145G C150G C169U U176A,0.0106
17,C82G A111C A120C U176C,0.0268
18,C82G A111C A120C U176A,0.018
19,C82G A111C A120C U176G,0.00944
20,C82G A111C A120G A145C C150G C169G,0.00722
21,C82G A111C A120G A145C C150G C169A,0.0084

row,Variant,reverse-splicing fitness
1,C82G A111C A120G A145C C150G C169U,0.00721
2,C82G A111C A120G C150A U176G,0.0081
3,C82G A111C A120G C150A U176A,0.014
4,C82G A111C A120G C150A U176C,0.0193
5,C82G A111C A120G A145G,0.014
6,C82G A111C A120G A145U,0.0164
7,C82G A111C A120G A145C,0.013
8,C82G A111C A120C C169G U176G,0.00714
9,C82G A111C A120C C169G U176C,0.0206
10,C82G A111C A120C C169G U176A,0.0161
11,C82G A111C A120G A145U C150U C169G U176G,0.00519
12,C82G A111C A120G A145U C150U C169G U176C,0.0134
13,C82G A111C A120G A145U C150U C169G U176A,0.0127
14,C82G A111C A120G A145G C150G U176A,0.00732
15,C82G A111C A120G A145G C150G U176G,0.00597
16,C82G A111C A120G A145G C150G U176C,0.0113
17,C82G A111C A120C C150G C169G U176C,0.00766
18,C82G A111C A120C C150G C169G U176A,0.00891
19,C82G A111C A120C C150G C169G U176G,0.00663
20,C82G A111C A120G A145G C169U,0.0104
21,C82G A111C A120G A145G C169G,0.0143

row,Variant,reverse-splicing fitness
1,C82G A111C A120G A145G C169A,0.0114
2,C82G A111C A120U,0.0509
3,C82G A111C A120G,0.0185
4,C82G A111C A120G C169G U176C,0.0224
5,C82G A111C A120G C169G U176G,0.0044
6,C82G A111C A120G C169G U176A,0.0184
7,C82G A111C A120G A145U C150G U176A,0.00814
8,C82G A111C A120G A145U C150G U176C,0.015
9,C82G A111C A120G A145U C150G U176G,0.00375
10,C82G A111C A120G A145G C150U C169U U176G,0.00501
11,C82G A111C A120G A145G C150U C169U U176A,0.0141
12,C82G A111C A120G A145G C150U C169U U176C,0.0145
13,C82G A111C A120G A145U C169G U176A,0.0117
14,C82G A111C A120G A145U C169G U176C,0.0132
15,C82G A111C A120G A145U C169G U176G,0.00458
16,C82G A111C A120U A145C,0.0432
17,C82G A111C A120G A145G C150U U176A,0.0105
18,C82G A111C A120G A145G C150U U176G,0.00692
19,C82G A111C A120G A145G C150U U176C,0.0183
20,C82G A111C A120G A145C C150U U176G,0.00478
21,C82G A111C A120G A145C C150U U176C,0.0125
